Source: article PMC5386588

Target: PNR hinge-LBD (131–410) (human) (UniProt Q9Y5X4)
Assay: two-hybrid; as a1, yeast cultured in the presence of the cognate ligand of the AAD partner (T3 for TRβ)

Sequence of UniProt Q9Y5X4 (Q9Y5X4 131-410): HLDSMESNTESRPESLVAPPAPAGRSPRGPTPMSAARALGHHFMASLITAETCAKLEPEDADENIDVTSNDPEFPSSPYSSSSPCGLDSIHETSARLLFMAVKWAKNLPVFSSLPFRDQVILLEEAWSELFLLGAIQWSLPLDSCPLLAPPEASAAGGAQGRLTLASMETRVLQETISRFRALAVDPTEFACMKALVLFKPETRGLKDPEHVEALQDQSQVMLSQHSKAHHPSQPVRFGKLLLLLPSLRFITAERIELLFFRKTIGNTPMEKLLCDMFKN

near full-length VP16-TRβ1 construct (from UniProt P10828 1-461) (domain or fragment)
fold induction of reporter activity by T3: 20 fold
